Experimental data taken from US20230009539.

System: Purified recombinant SF2

Recombinant IKKi
in vitro kinase assay: IKKi indeed was able to phosphorylate SF2 in vitro
